# According to article PMC10054925 (bioRxiv, 2023):
# B1: Vibrio cholerae HlyU (VcHlyU), transcriptional activator of hlyA (natural protein)
# chain: MPYLKGAPMNLQEMEKNSAKAVVLLKAMANERRLQILCMLLDNELSVGELSSRLELSQSALSQHLAWLRRDGLVNTRKEAQTVFYTLSSTEVKAMIELLHRLYCQANQ
# Target: the molecule itself
# Test: SEC
protein,measurement,value
B1,stoichiometry N,2
